Source: publication PMC9084892, “Von Willebrand factor A1 domain stability and affinity for GPIbα are differentially regulated by its O-glycosylated N- and C-linker” (eLife, 2022)
Values belong to the molecule of their own block, whether it stands above or below them.

Columns and labels:
[1] = biological target: GPIbα (Homo sapiens) (UniProt P07359); details: cited from earlier work
[2] = biological target: T1, VWF A1 domain construct A1+OGly+N+C (residues 1238-1489, O-glycosylated) (human, UniProt P04275 1238-1489, O-glycosylated N- and C-linkers); experiment: BLI; biotinylated GPIbα on streptavidin sensors, A1 constructs as analyte; 20 mM HEPES pH 7.5, 0.02% Tween-20, 150 mM NaCl; global fit to a single kon and koff; Octet RED384; details: both partners purified
T1 construct: von Willebrand factor, human, A1 domain with the N- and C-linkers, residues 1238-1489, pre-pro-VWF numbering; It extends three residues beyond the bacterial A1+N+C so as to include the O-glycosylated residues Ser-1486 and Thr-1487; also called A1NC

[3] = biological target: T2, VWF A1 domain construct A1 short (residues 1264-1469) (human, UniProt P04275 1264-1469); experiment: as above; details: both partners purified
T2 construct: von Willebrand factor, human, A1 domain without the N- and C-linkers, residues 1264-1469, pre-pro-VWF numbering; Both the mammalian and the bacterial methods allow a 1264-1469 construct; If it was made in E. coli, it carried an N-terminal thioredoxin that was cut off with TEV protease; Long-range disulfide Cys1272-Cys1458 is present; source: purified (Ni-NTA, Superdex 200), gel filtered again on …

[4] = biological target: T2, VWF A1 domain construct A1 short …; experiment: ITC; GPIbα (250 uM; 550 uM with A1+OGly+N+C) titrated into A1 (22 uM; 50 uM with A1+OGly+N+C); 150 mM NaCl, 20 mM Tris-HCl pH 7.5, 22°C; MicroCal iTC200; details: both partners purified

Molecule: von Willebrand factor A1 (tethered, high-affinity state) (from UniProt P04275)
- Kd [1]: 80 nM

- Kd [2]: 9200 nM
- Kd [3]: 180 nM
B1: Wild-type GPIbα, residues 1-290 of the mature protein, with biotinylated Avi-tag and His6 tag (domain or fragment)
chain: HPICEVSKVASHLEVNCDKRNLTALPPDLPKDTTILHLSENLLYTFSLATLMPYTRLTQLNLDRCELTKLQVDGTLPVLGTLDLSHNQLQSLPLLGQTLPALTVLDVSFNRLTSLPLGALRGLGELQELYLKGNELKTLPPGLLTPTPKLEKLSLANNNLTELPAGLLNGLENLDTLLLQENSLYTIPKGFFGSHLLPFAFLHGNPWLCNCEILYFRRWLQDNAENVYVWKQGVDVKAMTSNVASVQCDNSDKFPVYKYPGKGCPTLGDEGDTDLYDYYPEEDTEGDKVR
modifications: biotin on the Avi-tag

- fold higher affinity of A1 short than of A1+OGly+N+C [4]: 39 fold
B2: Wild-type GPIbα, residues 1-290 of the mature protein, with His6 tag (no Avi-tag) (domain or fragment)
chain: B1 chain
modifications: Mature 1-290 = precursor 17-306 (signal peptide 1-16). The His6 tag is left out; no Avi-tag or biotin. Expressed in HEK293, so glycosylated and disulfide-bonded.
